Test results taken from paper PMC12103069 (2025).

Target: UBE2L3 wild type (Mus musculus)
Assay: MST

UBE2L3 wild type (Mus musculus), sequence (B2R4A7 whole entry): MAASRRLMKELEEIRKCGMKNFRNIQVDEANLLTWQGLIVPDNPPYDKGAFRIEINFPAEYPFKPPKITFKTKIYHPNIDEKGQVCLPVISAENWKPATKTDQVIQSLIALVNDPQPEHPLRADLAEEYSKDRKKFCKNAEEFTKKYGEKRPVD

Kd: 150 nM
B1: GST-MuRF1RM (MuRF1 amino acids 1-115, RING and MFC domains) (domain or fragment)
chain: MDYKSGLIPDGNAMENLEKQLICPICLEMFTKPVVILPCQHNLCRKCANDIFQAANPYWTNRGGSVSMSGGRFRCPSCRHEVIMDRHGVYGLQRNLLVENIIDIYKQECSSRPLQ
modifications: red fluorescent dye NT-647, covalently, by amine coupling (in the fluorescence assay only)
